In the domain aggregation screens of Martell et al. (2025):

assay: soluble fraction after stress (log2 fold change); higher = more stays soluble; pooled small domains, quantitative proteomics; settings: stress: 50 degC
Summary of the method: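 Quantitative proteomics served as the high-throughput read-out for pooled custom libraries of small protein domains. Each was stressed at 50°C. Aggregation propensity is expressed as the base-two log fold change in soluble protein after stress. A higher value means a larger share of the protein remains in solution.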

Sequence	soluble fraction (log2)
HMARDPWDVLGVAKTATNDEIKRAFKRQAMMTHPDKQGGSEERFKEVNEAYSHIKDEQSRAKYQNSQ	0.238
HMEYQSLVLDFLEQGDFNAEKLKDYQRAFAKQNGMQTLPSKSQILQAYFQLVEEKKINKNSDFELLLRKR	0.0447
HMYPDNEQTLSKLAFEFFKKRNIPISQSNINQIVTKSLGDRENLYNELLKIENFSTSGKKLTDNVIKKLIN	0.00831
HMKAKTYTVQYIDEGKIIKEEELEEGSIINAPEVTKEGHTFIGWYEGEEKYDVYEPITRNLILESKNEIN	-0.137
HMQEERDISFIKIHLEPGHPWRGRALRELMPLKDLLIVMVVRGEDTIVPNGDTRLEEGDLLVLAAYPFEE	-0.436
HMTDGYAMRLERLNSLEEYVLNKGTVSLEDLAERFGVSINTIRRDLNELISRGQIKKVYGGVSSLHD	0.0904
HMLQADALADPVGWALRTLGFDLEAGTPERSAIQRSFRQSLIEAHPDHGGADDEAAQRIADITEARRILLA	-0.346
HMDDLSPEENKVIGAQVREELARRRLSRQHLADKAKISLSTLEKALTGTRPFTLASVVRIEEALQLQLRK	-0.484
HMYYIITNGKYWVIENPIRPGEYMESTKSSNAKQFTFKQAKNLLNARSKKLGWIRNGYSMVGED	-2.22
HMVELNDNEKIVYDILKETEKIHIDELTAKVQLTQSILSGALVQMEMKGMIVSLPGKMYKLL	-0.132
HMGAATQADIARVQELLNRLGYDAGSPDGLMGPRTRDAILEYQLTEGLETTGTVTRETLASLEARL	0.0823
HMSRYQDIANDIEKDIIEKKYTRKLPEQFELAQKYQTSRVTIVHALKILQNKKLIRTVKGHGTFITS	-1.4
HMTDTIALRSVIAESGLKYKALAEIMGLSPYTLQMKIDNESEFKASEIDALANALGMDMQQRDSIFF	-0.701
HMANSDEEVLNKISTKAPTFNELINKIKEFDDTKEINDIWLDVYRYYITDEEYKEIAKKVITGLTYTNQ	-0.177
HMENVLFVNVLSMTVRELAEMMKIPVNKIIQDSFSKGIMMNPNQRLEYDNFAELAKKYGITVKI	-0.879
HMELLTNPLTGREVEVLTLMALGQTNHEIARQLYLATGTVKAHTSSIYRKLDVANRTEAVARARQLGIL	-1.1
HMKNIINLVIDGELHGKRIDAVIAQKNDSLSRTRIKNLVINGNLSINDEIVSDPSKKIYKDDKVSLTIPLP	-0.058
HMELDMTFGEKIQKLRKESGLSQEELSYQLGVSRQAISKWERDSGYPETEKIVRMSKIFDVTLDYLLNE	-0.458
HMDQHERQQLLIHIAGGEREALAELYQRTRSAVYGLALSYLKNAHDAQDLTRDVYVQVWDRA	0.344

Sequence	soluble fraction (log2)
HMKSPVKLILRGSIYHIKISAVVNGQRIFVRESSHTTDKREAEQYANKRFAQLVEETEFRTN	-1.11
HMNNPLLDKVYQLMKQNNITEEEIVRAVAMKGYFPDDMKLGDYPDDFIDGVLIGAWDQIKQFIINNISPFK	0.0631
HMKDIIVLGAIQAGIKKFDKIQKMTQIEPEELNSILEQLENRGFIQVAEKSGLLGKKIEILVTEKGSNEVD	0.442
HMITVPKVINMSETQARQTLDALGLNVTLSATQVMNDKIPYGYVAAQSYSAGKEVPAGTTIELTMSIGL	-0.945
HMDPLGHVIKKKRLQLGMTLRDLAAKAGVHHATIDRIETDQFKVVDPSTLVKIAEALHLDQLYLLSLN	-0.0139
HMLHSEDATVVRQAIPLLERHVDAATVAVARRNLAQLEQFGRYPRRNQALGRISNPAENAYLRAER	0.0897
HMENFYGYEIINPEAKKFFITMGVNRYALEQWIKNKSEYGLIIVKSLYPFDPRLKLFLEKNRERIQNLIF	-0.566
HMKDITMPNVYGLTLEMAEQTLKQSELSIFKAMKINSDTVEEGKVIYTDPKANSIVSGDQEITIYVSDGP	0.0645
HMAAIPATVDEETYRRLKPMLKQYGILYHEFKPLRSGKKGAVELIFMEKDLALVQELLSRLKKEK	0.422
HMEVTENQEKHAYQEAMDQALRFLAPRFLSRAELTRKLLQKEHDRDVIDAVIDRLEELDYVDDAR	0.0309
HMTKDEFLTTLRTLIQDMPPEDRRDVMNYYTEYFEDAGPEREQEVLRQLGSPEQVAREVLGG	-0.0225
HMKGIVFTEFLDLVEERFGLEMVDAIISQSKLESKGVYTSIGTYSFSELLQLLQNLKIQTGISIDNLLLI	-0.88
HMEVSYSLPRFHKGKNPYVDFYQVDPRTLRMRRKKFLLRGVRDAVLLEQRAADLVALLTERLHSGWNAWDD	-2.11
HMVDPAEASKRAREYLDALPADDLKDVIRQFSATLAEGSVVLGYFQRSGLKSKVVKTALEQFVASTILSK	-0.167
HMQLTPAQHAILAYAIEHTGGKIEWFPDNIKGGARTKVLEGLFNKALITRDSTDWFVAAEGYDALGR	-0.549
HMIHQIPVNVQKIRQIIGINLNENDYLNYLAKLGFVIDEGLIIVPSFRSDVKTQNDLAEEIARV	-0.444
HMVVQTELVRISITSLSGEDIRRLVQIKVVGATIEPFEGGGFLITGTAEQIAKAKDFLNSMSTEF	-0.855
HMDKNNLLIIYRTNSEGTPYAFSVTPSAKSLDALHKDAKEMLPFLEKSMNNFFSIQIWERAEYLKY	-0.643
